Measured values: patent US20250074980A1 (BRIGHAM AND WOMEN S HOSPITAL, published 2025)

Biological target: T1, CEACAM6 on transfected HeLa cells (human, UniProt P40199 35-320)
T1 construct: whole, on cells; also called HeLa-CEACAM6; HeLa C6
T1 sequence (looked up): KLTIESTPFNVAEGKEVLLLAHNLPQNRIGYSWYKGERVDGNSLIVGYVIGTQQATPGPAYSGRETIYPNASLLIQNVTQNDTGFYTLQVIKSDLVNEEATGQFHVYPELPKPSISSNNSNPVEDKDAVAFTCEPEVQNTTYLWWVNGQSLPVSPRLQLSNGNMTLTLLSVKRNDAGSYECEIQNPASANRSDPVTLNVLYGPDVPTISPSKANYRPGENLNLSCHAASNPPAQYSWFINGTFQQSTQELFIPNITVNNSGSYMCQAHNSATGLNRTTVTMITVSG
Assay: flow cytometry titration, HeLa-CEACAM6 transfectants, anti-human IgG4 FITC
Method: FIGS. 31A and 31B show flow cytometry analyses of stable HeLa CEACAM1 (HeLa C1) transfectant, stable HeLa CEACAM3 transfectant (HeLa C3), stable HeLa CEACAM5 transfectant (HeLa C5), stable HeLa CEACAM6 transfectant (HeLa C6), and stable HeLa CEACAM8 transfectant (HeLa C8). FIG. 31A: 5×10\hat{ }4 indicated HeLa transfectants were washed with staining buffer and CP08H03/Vκ8 S29A (labeled “CP08”, left) or CEACAM1 antibody CM-24 was incubated at room temperature for 30 min, washed twice with staining buffer, and stained for anti-human IgG4 Fluorescein isothiocyanate (FITC) conjugated secondary antibody at room temperature for 20 min. Fluorescence intensities were determined by flow cytometry. Live cells were determined by 4′,6-diamidino-2-phenylindole (DAPI) staining as shown on the y-axis. Staining with the respective CEACAM1 antibody is shown on the x-axis. […]
The cervical adenocarcinoma cell line HeLa (ATCC No CCL-2) as well as transfected cell lines HeLaCEACAM1, HeLaCEACAM3, HeLaCEACAM5, HeLaCEACAM6 and HeLaCEACAM8 used for flow cytometry experiments were cultured at 37° C., 5.0% CO₂ in Dulbecco's modified Eagle's medium supplemented with 10% fetal bovine serum, penicillin (100 U/ml) and dihydrostreptomycin (100 μg/ml). […] Data were acquired with a Cytoflex flow cytometer (Invitrogen) and analyzed with FlowJo software (TreeStar, V7.6.5 for Windows).

binding result: no binding (tested: 100 ug/ml)
B1: CP08H03/Vκ8 S29A (antibody, IgG4, V domains shown)
VH: EVQLLESGGGLVQPGGSLRLSCAASGFIFSSHGMSWVRQAPGKGLEWVATISSGGTYTYYPDSVKGRFTISRDNSKNTLYLQMNSLKAEDTAMYYCARHDFDYFPYWFAHWGQGTLVTVSS
VL: EIVLTQSPATLSLSPGERATLSCRANSAVSYMYWYQQKPGQAPRPWIYLTSNRATGVPARFSGSGSGTDYTLTISSLEPEDFAVYYCQQWSSNPPTFGQGTKLEIK
notes: IgG4 (S241P), kappa; also called CP08_H03/Parent VL; CP08_H03/Parental
